Assay results taken from patent publication US9988424 (DUKE UNIVERSITY, dated 2018).
Substitutions are numbered along the chain they refer to.

T1: SIV CPZ US-1 gp140CF (SIVcpz)
T1 construct: also called US-1 SIVCPZ gp140CF
T1 chain: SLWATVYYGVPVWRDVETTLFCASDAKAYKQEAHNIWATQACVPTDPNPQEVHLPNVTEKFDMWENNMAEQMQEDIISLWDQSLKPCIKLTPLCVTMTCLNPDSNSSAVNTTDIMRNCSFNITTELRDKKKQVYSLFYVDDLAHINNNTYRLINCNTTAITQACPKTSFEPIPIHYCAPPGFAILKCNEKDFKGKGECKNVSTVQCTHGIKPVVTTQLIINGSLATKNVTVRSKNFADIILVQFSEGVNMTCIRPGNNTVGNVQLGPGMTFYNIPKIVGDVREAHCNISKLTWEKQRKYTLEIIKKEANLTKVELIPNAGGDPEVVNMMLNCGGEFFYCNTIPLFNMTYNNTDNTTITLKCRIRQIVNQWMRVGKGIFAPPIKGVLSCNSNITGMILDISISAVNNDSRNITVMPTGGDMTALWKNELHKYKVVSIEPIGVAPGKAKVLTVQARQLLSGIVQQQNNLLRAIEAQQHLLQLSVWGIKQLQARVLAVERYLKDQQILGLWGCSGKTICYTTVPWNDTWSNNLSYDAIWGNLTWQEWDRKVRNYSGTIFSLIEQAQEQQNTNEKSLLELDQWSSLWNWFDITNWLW

B1: HG107 (antibody, V domains shown)
VH: EVQLVESGGDLVQPGRSLRLSCAASGFTFDDYAMHWVRQAPGKGLEWISGISGNSGSRGYADSVKGRFTISRDNAKNSLYLQMNSLRAEDTALYYCATDGDRSGTTPLDHWGQGTRVTVSS
VL: SYELTQPPSVSVSPGQTARITCSGDALPKNYAYWYQQKSGQAPALVIYEDSKRPSGIPERFSGSSSGTMATLTISGAQVEDEADYYCYSTDSSGTPSFGTGTKVTVL
notes: also called mAb HG107
B2: HG120 (antibody, V domains shown)
VH: EVQLVESGGGLVQPGGSLRLSCAASGFTFSSYAMRWVRQAPGKGLEWVSGISGSGGSTYYADSVKGRFTISRDNSKITLYLQMDSLRVEDTAVYYCATAPLSYDSSTDYWGQGTLVTVSS
VL: B1 VL with N30K, A44V, T95N, S97R, T100R, V104L
notes: also called mAb HG120
B3: CH01 RUA 1 (antibody, V domains shown)
VH: EVQLVESGGGVVRPGGSLRLSCAASGFTFDDYGMSWVRQAPGKGLEWVSGINWNGGSTGYADSVKGRFTISRDNAKNSLYLQMNSLRAEDTALYYCARGTDYTIDDQGIRYQGSGTFWYFDLWGRGTLVTVSS
VL: not shown
B4: CH01 RUA 2 (antibody, V domains shown)
VH: B3 VH with R110L
VL: not shown

What was measured:
B.9021 gp140C = B.9021 gp140C (HIV-1); experiment: ELISA
AE.97CNG2XF gp140CF = target: T2, AE.97CNG2XF gp140CF (HIV-1); experiment: ELISA
T2 construct: also called E.97CNGX2F gp140CF

AE.A244 gD+ gp120 = target: T3, AE.A244 gD+ gp120 (HIV-1); experiment: ELISA
T3 construct: domain: gp120; also called AE.A244 gp120gD+

SIV CPZ US-1 gp140CF = target: T1, SIV CPZ US-1 gp140CF; experiment: ELISA
AE.92TH023 gp120 gD+ = target: T4, AE.92TH023 gp120 gD+ (HIV-1); experiment: ELISA
T4 construct: domain: gp120; also called AE.92TH023 gp12 gD+

C.1086 gp120 = C.1086 gp120 (HIV-1); experiment: ELISA
B.HXB/BAL gp140CFI = target: T5, B.HXB/BAL gp140CFI (HIV-1, UniProt P04578 33-680); experiment: ELISA
T5 construct: also called B.HxB/Ba gp140 CFI

AE.A244 V1V2 Tags [1] = target: AE.A244 V1V2 Tags (HIV-1); experiment: ELISA OD405nm, antibody at 33, 11.1 and 1.2 ug/ml
AE.A244 V1V2 Tags [2] = target: AE.A244 V1V2 Tags (HIV-1); experiment: ELISA OD405nm, bar chart, antibody concentration not given

Binder | binding result (B.9021 gp140C) | EC50 (AE.97CNG2XF gp140CF) [µg/mL] | EC50 (AE.A244 gD+ gp120) [µg/mL] | binding result (SIV CPZ US-1 gp140CF) | EC50 (AE.92TH023 gp120 gD+) [µg/mL] | EC50 (C.1086 gp120) [µg/mL] | binding result (B.HXB/BAL gp140CFI) | binding result (AE.A244 V1V2 Tags [1]) | binding result (AE.A244 V1V2 Tags [2])
B1 | no binding | 0.055 | 0.03 | no binding | 0.04 | 0.03 | no binding |  | 
B2 | no binding | 0.06 | 0.02 | no binding | 0.02 | 0.02 | no binding |  | 
B3 |  |  |  |  |  |  |  | binds | 
B4 |  |  |  |  |  |  |  |  | binds
